Results taken from patent publication US20260207767A1 (ANAVEON, published 2026).
Like-named read-outs stand apart in the source and are kept apart here.

Tests used:
[1] = target: T1, human PD-1 expressed on cells (human, UniProt Q15116 25-288); assay: flow cytometry, CHO-S hPD-1
T1 construct: whole, on cells; cell line named under assay; also called CHO-S hPD-1; Raji PD-1
Protocol: CHO-S hPD-1 cells were incubated with a 5-fold serial dilution of the indicated humanized antibodies. Antibody binding was detected with goat anti-human IgG-PE. MFI were plotted over the antibody concentration to obtain EC50 values.

[2] = target: T1, human PD-1 expressed on cells; assay: flow cytometry, CHO-S hPD-1; remark: listed apart in the source
[3] = target: T2, cynoPD-1 His (AcroBiosystems PD1-C5223) (cynomolgus monkey, UniProt B0LAJ3 25-170); assay: SPR; second ka column, taken as cynoPD-1
T2 construct: also called cPD-1; cynomolgus PD-1 His-tagged
Protocol: (§1) Anti-human Fc IgG (Jackson) was immobilized on amine reactive CM5 chips (GE Healthcare) using 1×HBS-EP+ running buffer (GE Healthcare). The test antibodies were captured at flow rate 10 μl/min with 30 s contact time. […] Regeneration was carried out with 10 mM Glycine-HCl, pH 1.5 at flow rate 10 μL/min. This protocol is to be used, unless stated otherwise, in determination of Kd wherever used to define the KD of antibodies specified herein, with adaptions where necessary with regard to the nature of the interaction partners.
Every position in the antibody VH and VL-CDRs was mutated by PCR using a mutagenic primer containing a degenerate codon NNS at a specific CDR position, introducing a combination of all 20 amino acids. The library of single mutants was screened by scFv capture ELISA using a redundancy factor of 4 (on 96-well plate er position). Clones displaying ≥2× ELISA signal compared to the wild-type scFv were sequenced, and clones with unique sequences were re-grown, re-screened by capture ELISA and ranked by dose-dependent ELISA on human and cyno antigens, and by FACS using human antigen expressing cells. Affinity improving mutations were used to design a combinatorial library using the Kunkel method. The library was screened by scFv capture ELISA using the redundancy factor of 4 (4× number of combinations). Clones displaying ≥2× ELISA signal compared to the wild-type scFv were sequenced, and clones with unique sequences were re-grown, re-screened by capture ELISA and ranked by dose-dependent ELISA on human and cyno antigens, and by FACS using human antigen expressing cells.

[4] = target: T3, cynomolgus PD-1 expressed on cells (cynomolgus monkey, UniProt B0LAJ3 25-288); assay: flow cytometry, CHO-S Cyno-PD-1
T3 construct: also called CHO-S Cyno-PD-1; 293:cyPD1

[5] = target: T4, recombinant hPD-1 (construct not stated) (human, UniProt Q15116 25-167, limits assumed); assay: ELISA
T4 construct: also called huPD-1; Human PD1

[6] = target: T5, recombinant cynoPD-1 (construct not stated) (cynomolgus monkey, UniProt B0LAJ3 25-170); assay: ELISA
T5 construct: not shown: probably His as elsewhere

[7] = target: T2, cynoPD-1 His (AcroBiosystems PD1-C5223); assay: SPR, Ab captured, PD-1 analyte
Protocol: as §1

[8] = target: T6, hPD-1 Avi-Tag Biotin (AcroBiosystems PD1-H82E4) (human, UniProt Q15116 25-167, biotin on Avi-Tag); assay: SPR, Ab captured, PD-1 analyte
T6 construct: bought; also called human PD-1
Protocol: as §1

[9] = target: T6, hPD-1 Avi-Tag Biotin (AcroBiosystems …); assay: SPR, Ab captured, PD-1 analyte; remark: listed apart in the source
Protocol: as §1, with “partners. […]” for “partners.”

hPD-1 His-tagged = target: T7, hPD-1 His-tagged (human, UniProt Q15116 25-167); assay: BLI (legend: SPR), Ab on sensor
T7 construct: also called recombinant hPD-1 (AcroBio)

[10] = target: T2, cynoPD-1 His (AcroBiosystems PD1-C5223); assay: BLI (legend: SPR), Ab on sensor
[11] = target: T3, cynomolgus PD-1 expressed on cells; assay: flow cytometry, HEK293 cyPD1
[12] = target: T1, human PD-1 expressed on cells; assay: flow cytometry, HEK293 huPD1

T1 sequence (Q15116 25-288): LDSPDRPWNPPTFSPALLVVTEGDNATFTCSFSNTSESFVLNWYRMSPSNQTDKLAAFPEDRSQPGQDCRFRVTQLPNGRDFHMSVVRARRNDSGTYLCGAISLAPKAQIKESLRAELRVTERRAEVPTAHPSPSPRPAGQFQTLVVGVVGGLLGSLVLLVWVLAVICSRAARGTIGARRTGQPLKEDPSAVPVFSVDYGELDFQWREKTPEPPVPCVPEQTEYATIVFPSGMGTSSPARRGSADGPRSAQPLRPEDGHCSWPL
T5 sequence (B0LAJ3 entry or part of it limits assumed): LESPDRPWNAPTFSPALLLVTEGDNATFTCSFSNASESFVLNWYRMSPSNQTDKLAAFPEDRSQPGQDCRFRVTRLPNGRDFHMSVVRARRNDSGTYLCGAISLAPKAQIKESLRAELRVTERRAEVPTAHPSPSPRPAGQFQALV
T7 sequence (Q15116 25-167 limits assumed): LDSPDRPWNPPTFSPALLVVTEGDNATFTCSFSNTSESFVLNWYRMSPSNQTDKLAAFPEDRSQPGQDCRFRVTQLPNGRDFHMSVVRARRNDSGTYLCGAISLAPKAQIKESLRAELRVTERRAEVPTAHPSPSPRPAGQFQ
T4 sequence (Q15116 25-167 limits assumed): as above
T6 sequence (Q15116 25-167 limits assumed): as above
T3 sequence (B0LAJ3 entry or part of it limits assumed): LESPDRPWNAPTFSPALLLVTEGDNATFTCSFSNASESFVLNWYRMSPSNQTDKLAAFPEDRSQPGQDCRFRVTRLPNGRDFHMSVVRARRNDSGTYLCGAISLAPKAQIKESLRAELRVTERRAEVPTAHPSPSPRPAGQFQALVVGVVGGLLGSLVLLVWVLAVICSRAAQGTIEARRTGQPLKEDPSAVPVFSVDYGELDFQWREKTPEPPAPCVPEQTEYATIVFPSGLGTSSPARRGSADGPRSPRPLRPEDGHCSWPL

Binder	EC50 [2]	Max MFI [2]	kon [3]	Max MFI [4]	EC50 [5]	Max OD [5]	EC50 [6]	Max OD [6]	Kd [9]	koff [9]	kon [9]	Kd (hPD-1 His-tagged)	koff (hPD-1 His-tagged)	kon (hPD-1 His-tagged)	Kd [10]	koff [10]	kon [10]	EC50 [11]	EC50 [12]	further results
z2-XVT458 (antibody, IgG1, V domains shown, full hIgG1; also called XVT458-z2; GH + T071V) VH: QVQLVQSGAEVKKPGASVKVSCKASGYTFTNFYIHWVRQAPGQGLEWMGSIYPNYGDTAYNQKFKDRVTMTVDTSTSTAYMELRSLRSDDTAVYYCARGYSYAMDYWGQGTTVTVSS VL: DIQMTQSPSSVSASVGDRVTITCSASQGISGDLNWYQQKPGKAPKLLIYHTSSLHSGVPSRFSGSGSGTDFTLTISSLQPEDFATYYCQYYSKDLLTFGGGTKLEIK	5.86 nM	40700 MFI	73000 M⁻¹ s⁻¹	109 MFI	0.71 nM	2.91 OD	0.4 nM	3.32 OD	12.5 nM	0.00124 s⁻¹	99200 M⁻¹ s⁻¹									EC50 [1]: 4.15 nM; Top MFI [1]: 45500 MFI; Kd [7]: 54.2 nM; koff [7]: 0.0031 s⁻¹; kon [7]: 57200 M⁻¹ s⁻¹; Kd [8]: 14 nM; koff [8]: 0.00127 s⁻¹; kon [8]: 90700 M⁻¹ s⁻¹
XVT458-z2-m4 (antibody, V domains shown, IgG format; also called z2_XVT458m4) VH: QVQLVQSGAEVKKPGASVKVSCKASGYTFTNFYIHWVRQAPGQGLEWMGRIYPNYGITAYNQKFKDRVTMTVDTSTSTAYMELRSLRSDDTAVYYCARGYSYAMDYWGQGTTVTVSS VL: DIQMTQSPSSVSASVGDRVTITCSASQGISGDLNWYQQKPGKAPKLLIYHTSSRHSGVPSRFSGSGSGTDFTLTISSLQPEDFATYYCQGYSKDLLTFGGGTKLEIK	0.96 nM	43400 MFI	134000 M⁻¹ s⁻¹	258 MFI	0.079 nM	3.3 OD	0.098 nM	3.54 OD	1.22 nM	0.000173 s⁻¹	142000 M⁻¹ s⁻¹									
XVT458-z2-m6 (antibody, V domains shown, IgG format; also called z2_XVT458m6) VH: QVQLVQSGAEVKKPGASVKVSCKASGYTFTNFYIHWVRQAPGQGLEWMGSIYPNYGITAYNQKFKDRVTMTVDTSTSTAYMELRSLRSDDTAVYYCARGYSYAMDYWGQGTTVTVSS VL: DIQMTQSPSSVSASVGDRVTITCSASQGISGDLNWYQQKPGKAPKLLIYHTSQLHSDVPSRFSGSGSGTDFTLTISSLQPEDFATYYCQGYSKDLLTFGGGTKLEIK	1.56 nM	39500 MFI	213000 M⁻¹ s⁻¹	59 MFI	0.064 nM	3.49 OD	0.071 nM	3.69 OD	0.439 nM	0.000101 s⁻¹	231000 M⁻¹ s⁻¹									

Second part, led by results:

EC50 [2]	Max MFI [2]	kon [3]	Max MFI [4]	EC50 [5]	Max OD [5]	EC50 [6]	Max OD [6]	Kd [9]	koff [9]	kon [9]	Kd (hPD-1 His-tagged)	koff (hPD-1 His-tagged)	kon (hPD-1 His-tagged)	Kd [10]	koff [10]	kon [10]	EC50 [11]	EC50 [12]	Binder	further results
0.84 nM	42400 MFI	111000 M⁻¹ s⁻¹	335 MFI	0.051 nM	3.42 OD	0.056 nM	3.58 OD	0.787 nM	9.77e-05 s⁻¹	124000 M⁻¹ s⁻¹									XVT458-z2-m5 (antibody, V domains shown, IgG format; also called z2_XVT458m5) VH: QVQLVQSGAEVKKPGASVKVSCKASGYTFTNFYIHWVRQAPGQGLEWMGRIYPNYGITAYNQKFKDRVTMTVDTSTSTAYMELRSLRSDDTAVYYCARGYSYAMDYWGQGTTVTVSS VL: DIQMTQSPSSVSASVGDRVTITCSASQGIYGDLNWYQQKPGKAPKLLIYHTSSRHSGVPSRFSGSGSGTDFTLTISSLQPEDFATYYCQAYSKDLLTFGGGTKLEIK	
											1.41 nM	0.000132 s⁻¹	94000 M⁻¹ s⁻¹	8.45 nM	0.000838 s⁻¹	99200 M⁻¹ s⁻¹	0.107 nM	0.2 nM	22F13 (antibody, V domains shown, used with CH1,2,3 and corresponding CL) VH: EVQLLESGGGLVQPGGSLRLSCAASGFTFSISAMTWVRQAPGKGLEWVSTISGSGGSTYYSDSVKGRFTISRDNSKNTLYLQINSLRADDTAVYYCAKEVYGDYWGQGTLVTVSS VL: not shown	
											1.15 nM	0.000101 s⁻¹	87500 M⁻¹ s⁻¹	8.38 nM	0.000783 s⁻¹	93400 M⁻¹ s⁻¹	0.31 nM	0.179 nM	25I20 (antibody, V domains shown, used with CH1,2,3 and corresponding CL; also called 25120) VH: EVQLLESGGNLVQPGGSLRLSCAASGFTFSTYAMSWVRQAPGKGLEWVSTISGTGYSTYFADSVKGRFTISRDNSKNTLFLQMNSLRAEDTAVYYCAKEVYGDYWGQGTLVTVSS VL: not shown	
